Data: publication PMC314469, “Protein Interaction Networks by Proteome Peptide Scanning” (PLoS Biology, 2004)

What was measured:
Experiment in all cases: SPOT array
[1] = molecular target: T1, Boi1 SH3 (BOI1_YEAST), P38041
T1 chain: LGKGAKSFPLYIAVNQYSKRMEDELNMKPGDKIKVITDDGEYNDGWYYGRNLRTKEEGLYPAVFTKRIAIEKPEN

[2] = molecular target: T2, Yfr024 SH3 (LSB3_YEAST), P43603
T2 chain: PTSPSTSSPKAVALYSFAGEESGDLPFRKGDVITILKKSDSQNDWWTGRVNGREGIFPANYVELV

[3] = molecular target: T3, Boi2 SH3 (BOI2_YEAST), P39969
T3 chain: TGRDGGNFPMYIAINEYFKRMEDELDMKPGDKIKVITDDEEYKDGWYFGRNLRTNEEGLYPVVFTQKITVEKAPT

[4] = molecular target: Sho1 SH3 (SHO1_YEAST), P40073
Chain of Sho1 SH3 (SHO1_YEAST), P40073 (P40073 295-366): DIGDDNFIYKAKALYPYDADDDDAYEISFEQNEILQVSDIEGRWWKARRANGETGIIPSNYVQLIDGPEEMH

[5] = molecular target: T4, Myo5 SH3 (MYO5_YEAST), Q04439
T4 chain: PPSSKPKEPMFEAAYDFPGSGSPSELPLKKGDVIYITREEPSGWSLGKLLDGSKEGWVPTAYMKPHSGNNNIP

[6] = molecular target: T5, Yhr016c SH3 (YSC84_YEAST), P32793
T5 chain: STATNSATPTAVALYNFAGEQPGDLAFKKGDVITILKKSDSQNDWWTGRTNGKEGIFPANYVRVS

[7] = molecular target: T6, Rvs167 SH3 (RV167_YEAST), P39743
T6 chain: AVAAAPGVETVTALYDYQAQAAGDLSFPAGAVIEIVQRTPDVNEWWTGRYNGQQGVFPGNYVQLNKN

LKDNRLLPSWPKRG [YIL047C 206-219]
normalised SPOT signal, Boehringer light units (BLU); mean over the file's lines of this peptide [1]: 152
normalised SPOT signal, Boehringer light units (BLU); mean over the file's lines of this peptide [2]: 3640
normalised SPOT signal, Boehringer light units (BLU); mean over the file's lines of this peptide [3]: 21.8
normalised SPOT signal, Boehringer light units (BLU); mean over the file's lines of this peptide [4]: 350
normalised SPOT signal, Boehringer light units (BLU); mean over the file's lines of this peptide [5]: 518
normalised SPOT signal, Boehringer light units (BLU); mean over the file's lines of this peptide [6]: 488
normalised SPOT signal, Boehringer light units (BLU); mean over the file's lines of this peptide [7]: 144

LLVTKERPRFPEDD [YIL129C 688-701]
normalised SPOT signal, Boehringer light units (BLU); mean over the file's lines of this peptide [1]: 126
normalised SPOT signal, Boehringer light units (BLU); mean over the file's lines of this peptide [2]: 168
normalised SPOT signal, Boehringer light units (BLU); mean over the file's lines of this peptide [3]: 7.5
normalised SPOT signal, Boehringer light units (BLU); mean over the file's lines of this peptide [4]: 47.5
normalised SPOT signal, Boehringer light units (BLU); mean over the file's lines of this peptide [5]: 33.7
normalised SPOT signal, Boehringer light units (BLU); mean over the file's lines of this peptide [6]: 28.4
normalised SPOT signal, Boehringer light units (BLU); mean over the file's lines of this peptide [7]: 16.4

LIWHKSKPVKPTNK [YBL005W-B 1591-1604]
normalised SPOT signal, Boehringer light units (BLU); mean over the file's lines of this peptide [1]: 139
normalised SPOT signal, Boehringer light units (BLU); mean over the file's lines of this peptide [2]: 1320
normalised SPOT signal, Boehringer light units (BLU); mean over the file's lines of this peptide [3]: 30.5
normalised SPOT signal, Boehringer light units (BLU); mean over the file's lines of this peptide [4]: 106
normalised SPOT signal, Boehringer light units (BLU); mean over the file's lines of this peptide [5]: 354
normalised SPOT signal, Boehringer light units (BLU); mean over the file's lines of this peptide [6]: 73
normalised SPOT signal, Boehringer light units (BLU); mean over the file's lines of this peptide [7]: 71.9

LMSLKRFPQLPSNT [YOL125W 162-175]
normalised SPOT signal, Boehringer light units (BLU); mean over the file's lines of this peptide [1]: 796
normalised SPOT signal, Boehringer light units (BLU); mean over the file's lines of this peptide [2]: 2420
normalised SPOT signal, Boehringer light units (BLU); mean over the file's lines of this peptide [3]: 294
normalised SPOT signal, Boehringer light units (BLU); mean over the file's lines of this peptide [4]: 661
normalised SPOT signal, Boehringer light units (BLU); mean over the file's lines of this peptide [5]: 348
normalised SPOT signal, Boehringer light units (BLU); mean over the file's lines of this peptide [6]: 554
normalised SPOT signal, Boehringer light units (BLU); mean over the file's lines of this peptide [7]: 1340

LNQSKGQPFQPSPT [YBL101C 22-35]
normalised SPOT signal, Boehringer light units (BLU); mean over the file's lines of this peptide [1]: 139
normalised SPOT signal, Boehringer light units (BLU); mean over the file's lines of this peptide [2]: 16
normalised SPOT signal, Boehringer light units (BLU); mean over the file's lines of this peptide [3]: 0
normalised SPOT signal, Boehringer light units (BLU); mean over the file's lines of this peptide [4]: 24.8
normalised SPOT signal, Boehringer light units (BLU); mean over the file's lines of this peptide [5]: 255
normalised SPOT signal, Boehringer light units (BLU); mean over the file's lines of this peptide [6]: 26.4
normalised SPOT signal, Boehringer light units (BLU); mean over the file's lines of this peptide [7]: 111

LNFKRLLPRDPSEK [YBR239C 260-273]
normalised SPOT signal, Boehringer light units (BLU); mean over the file's lines of this peptide [1]: 1070
normalised SPOT signal, Boehringer light units (BLU); mean over the file's lines of this peptide [2]: 1290
normalised SPOT signal, Boehringer light units (BLU); mean over the file's lines of this peptide [3]: 57.4
normalised SPOT signal, Boehringer light units (BLU); mean over the file's lines of this peptide [4]: 1360
normalised SPOT signal, Boehringer light units (BLU); mean over the file's lines of this peptide [5]: 554
normalised SPOT signal, Boehringer light units (BLU); mean over the file's lines of this peptide [6]: 3490
normalised SPOT signal, Boehringer light units (BLU); mean over the file's lines of this peptide [7]: 1630

LLEERNNPDIPVDK [YBR055C 407-420]
normalised SPOT signal, Boehringer light units (BLU); mean over the file's lines of this peptide [1]: 85.4
normalised SPOT signal, Boehringer light units (BLU); mean over the file's lines of this peptide [2]: 38.8
normalised SPOT signal, Boehringer light units (BLU); mean over the file's lines of this peptide [3]: 19.6
normalised SPOT signal, Boehringer light units (BLU); mean over the file's lines of this peptide [4]: 26.1
normalised SPOT signal, Boehringer light units (BLU); mean over the file's lines of this peptide [5]: 312
normalised SPOT signal, Boehringer light units (BLU); mean over the file's lines of this peptide [6]: 19.5
normalised SPOT signal, Boehringer light units (BLU); mean over the file's lines of this peptide [7]: 38.3

LNGLKSSPADPHLS [YLR072W 61-74]
normalised SPOT signal, Boehringer light units (BLU); mean over the file's lines of this peptide [1]: 63.9
normalised SPOT signal, Boehringer light units (BLU); mean over the file's lines of this peptide [2]: 2.4
normalised SPOT signal, Boehringer light units (BLU); mean over the file's lines of this peptide [3]: 39.1
normalised SPOT signal, Boehringer light units (BLU); mean over the file's lines of this peptide [4]: 20.5
normalised SPOT signal, Boehringer light units (BLU); mean over the file's lines of this peptide [5]: 153
normalised SPOT signal, Boehringer light units (BLU); mean over the file's lines of this peptide [6]: 23.9
normalised SPOT signal, Boehringer light units (BLU); mean over the file's lines of this peptide [7]: 60.3

LNPNRRAPRRPLST [YJL128C 180-193]
normalised SPOT signal, Boehringer light units (BLU); mean over the file's lines of this peptide [1]: 4910
normalised SPOT signal, Boehringer light units (BLU); mean over the file's lines of this peptide [2]: 3720
normalised SPOT signal, Boehringer light units (BLU); mean over the file's lines of this peptide [3]: 506
normalised SPOT signal, Boehringer light units (BLU); mean over the file's lines of this peptide [4]: 585
normalised SPOT signal, Boehringer light units (BLU); mean over the file's lines of this peptide [5]: 8000
normalised SPOT signal, Boehringer light units (BLU); mean over the file's lines of this peptide [6]: 173
normalised SPOT signal, Boehringer light units (BLU); mean over the file's lines of this peptide [7]: 1240

LNFPKNIPTIPFYV [YDR402C 27-40]
normalised SPOT signal, Boehringer light units (BLU); mean over the file's lines of this peptide [1]: 92.6
normalised SPOT signal, Boehringer light units (BLU); mean over the file's lines of this peptide [2]: 26.9
normalised SPOT signal, Boehringer light units (BLU); mean over the file's lines of this peptide [3]: -0
normalised SPOT signal, Boehringer light units (BLU); mean over the file's lines of this peptide [4]: 131
normalised SPOT signal, Boehringer light units (BLU); mean over the file's lines of this peptide [5]: 256
normalised SPOT signal, Boehringer light units (BLU); mean over the file's lines of this peptide [6]: 22.8
normalised SPOT signal, Boehringer light units (BLU); mean over the file's lines of this peptide [7]: 53

LNATKISPSAPSKD [YAR002W 346-359]
normalised SPOT signal, Boehringer light units (BLU); mean over the file's lines of this peptide [1]: 51.9
normalised SPOT signal, Boehringer light units (BLU); mean over the file's lines of this peptide [2]: 38.8
normalised SPOT signal, Boehringer light units (BLU); mean over the file's lines of this peptide [3]: 0
normalised SPOT signal, Boehringer light units (BLU); mean over the file's lines of this peptide [4]: 31.8
normalised SPOT signal, Boehringer light units (BLU); mean over the file's lines of this peptide [5]: 114
normalised SPOT signal, Boehringer light units (BLU); mean over the file's lines of this peptide [6]: 8.4
normalised SPOT signal, Boehringer light units (BLU); mean over the file's lines of this peptide [7]: 29.4

LKKQKAIPSSPSGM [YMR179W 684-697]
normalised SPOT signal, Boehringer light units (BLU); mean over the file's lines of this peptide [1]: 711
normalised SPOT signal, Boehringer light units (BLU); mean over the file's lines of this peptide [2]: 255
normalised SPOT signal, Boehringer light units (BLU); mean over the file's lines of this peptide [3]: 16.1
normalised SPOT signal, Boehringer light units (BLU); mean over the file's lines of this peptide [4]: 204
normalised SPOT signal, Boehringer light units (BLU); mean over the file's lines of this peptide [5]: 307
normalised SPOT signal, Boehringer light units (BLU); mean over the file's lines of this peptide [6]: 32.4
normalised SPOT signal, Boehringer light units (BLU); mean over the file's lines of this peptide [7]: 35.2

LNLSKDAPVPPAPE [YOL006C 316-329]
normalised SPOT signal, Boehringer light units (BLU); mean over the file's lines of this peptide [1]: 103
normalised SPOT signal, Boehringer light units (BLU); mean over the file's lines of this peptide [2]: 0
normalised SPOT signal, Boehringer light units (BLU); mean over the file's lines of this peptide [3]: 19.2
normalised SPOT signal, Boehringer light units (BLU); mean over the file's lines of this peptide [4]: 54.1
normalised SPOT signal, Boehringer light units (BLU); mean over the file's lines of this peptide [5]: 161
normalised SPOT signal, Boehringer light units (BLU); mean over the file's lines of this peptide [6]: 81
normalised SPOT signal, Boehringer light units (BLU); mean over the file's lines of this peptide [7]: 128

LLPTKLIPSIPGGK [YER105C 312-325]
normalised SPOT signal, Boehringer light units (BLU); mean over the file's lines of this peptide [1]: -0
normalised SPOT signal, Boehringer light units (BLU); mean over the file's lines of this peptide [2]: 154
normalised SPOT signal, Boehringer light units (BLU); mean over the file's lines of this peptide [3]: 3.5
normalised SPOT signal, Boehringer light units (BLU); mean over the file's lines of this peptide [4]: 17.1
normalised SPOT signal, Boehringer light units (BLU); mean over the file's lines of this peptide [5]: 172
normalised SPOT signal, Boehringer light units (BLU); mean over the file's lines of this peptide [6]: 14.3
normalised SPOT signal, Boehringer light units (BLU); mean over the file's lines of this peptide [7]: 17.2

LKHTKNKPKNPDTA [YGL131C 1018-1031]
normalised SPOT signal, Boehringer light units (BLU); mean over the file's lines of this peptide [1]: 1870
normalised SPOT signal, Boehringer light units (BLU); mean over the file's lines of this peptide [2]: 47.5
normalised SPOT signal, Boehringer light units (BLU); mean over the file's lines of this peptide [3]: 25.8
normalised SPOT signal, Boehringer light units (BLU); mean over the file's lines of this peptide [4]: 45.5
normalised SPOT signal, Boehringer light units (BLU); mean over the file's lines of this peptide [5]: 406
normalised SPOT signal, Boehringer light units (BLU); mean over the file's lines of this peptide [6]: 16.8
normalised SPOT signal, Boehringer light units (BLU); mean over the file's lines of this peptide [7]: 39.5

LNKTKLLPQSPILN [YJR005W 603-616]
normalised SPOT signal, Boehringer light units (BLU); mean over the file's lines of this peptide [1]: 93.4
normalised SPOT signal, Boehringer light units (BLU); mean over the file's lines of this peptide [2]: 71.9
normalised SPOT signal, Boehringer light units (BLU); mean over the file's lines of this peptide [3]: 8.8
normalised SPOT signal, Boehringer light units (BLU); mean over the file's lines of this peptide [4]: 1920
normalised SPOT signal, Boehringer light units (BLU); mean over the file's lines of this peptide [5]: 118
normalised SPOT signal, Boehringer light units (BLU); mean over the file's lines of this peptide [6]: 14.5
normalised SPOT signal, Boehringer light units (BLU); mean over the file's lines of this peptide [7]: 35.5
